This note sets out measurements from patent US20170121425A1 (ACADEMIA SINICA, published 2017).

Test [1] deals with Fc region of human IgE (ε.Fc 2-4), Ser226 to Gly599, N265Q and N371Q (human) (UniProt P01854). Nature of the test: ELISA, ε.Fc 2-4 coated, antibody titrated. On the technique in general: In an ELISA, binding on a coated surface is turned into a signal by an enzyme label.
Test [2] shares this target. Nature of the test: ELISA, ε.Fc 2-4 coated on the plate, antibody titrated, OD450.
For test [3] the target is unchanged. Nature of the test: competitive ELISA on coated ε.Fc 2-4; competitor HRP-conjugated c8D6.
In test [4] the target is T1, mIgE.FcS (CH2-cytoplasmic tail of the short form of human membrane ε chain) on Ramos cells (human, UniProt P01854-3 104-494, limits assumed).
T1 construct: domain: CH2-cytoplasmic tail of the short form of membrane ε chain; also called mIgE.FcS Ramos
T1 sequence (P01854 other isoform, or with tags, fused parts or gaps limits assumed): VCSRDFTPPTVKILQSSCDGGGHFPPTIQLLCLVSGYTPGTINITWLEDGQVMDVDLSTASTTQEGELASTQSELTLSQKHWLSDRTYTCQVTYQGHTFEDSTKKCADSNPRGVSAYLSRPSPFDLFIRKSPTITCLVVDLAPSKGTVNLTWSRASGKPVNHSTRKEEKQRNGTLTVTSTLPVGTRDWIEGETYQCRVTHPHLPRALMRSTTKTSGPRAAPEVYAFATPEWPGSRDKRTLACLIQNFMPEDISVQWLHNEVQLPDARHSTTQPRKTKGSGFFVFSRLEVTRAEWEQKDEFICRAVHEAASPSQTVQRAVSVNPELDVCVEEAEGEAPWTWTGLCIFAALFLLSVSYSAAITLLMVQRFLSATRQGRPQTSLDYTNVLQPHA
Description: flow cytometry on mIgE.FcS-expressing Ramos cells; c8D6, not hu8D6. As for the experimental part:
(§1) Ramos cells expressing mIgE.FcL or mIgE.FcS were resuspended in FACS buffer (1% FBS and 0.1% sodium azide in 1×PBS) at a cell density of 2×10⁶ cells/mL. […] Bound antibodies were detected by FITC-labeled goat IgG specific for human IgG-Fc (Caltag Laboratories). The stained cells were analyzed on a FACS Canto II flow cytometer (BD Biosciences). The geometric means of fluorescence intensity for the binding of antibodies to Ramos cell lines were analyzed using the FCSExpress software (DeNono software). The EC₅₀ was calculated using the Prism software.
For orientation: A flow cytometer gives signals particle by particle.

For test [5], the target named is T2, mIgE.FcL (CH2-cytoplasmic tail of the long form of human membrane ε chain) on Ramos cells (human, UniProt P01854 104-546, limits assumed).
T2 construct: domain: CH2-cytoplasmic tail of the long form of membrane ε chain; also called mIgE.FcL Ramos
T2 sequence (P01854 104-546 limits assumed, form in doubt): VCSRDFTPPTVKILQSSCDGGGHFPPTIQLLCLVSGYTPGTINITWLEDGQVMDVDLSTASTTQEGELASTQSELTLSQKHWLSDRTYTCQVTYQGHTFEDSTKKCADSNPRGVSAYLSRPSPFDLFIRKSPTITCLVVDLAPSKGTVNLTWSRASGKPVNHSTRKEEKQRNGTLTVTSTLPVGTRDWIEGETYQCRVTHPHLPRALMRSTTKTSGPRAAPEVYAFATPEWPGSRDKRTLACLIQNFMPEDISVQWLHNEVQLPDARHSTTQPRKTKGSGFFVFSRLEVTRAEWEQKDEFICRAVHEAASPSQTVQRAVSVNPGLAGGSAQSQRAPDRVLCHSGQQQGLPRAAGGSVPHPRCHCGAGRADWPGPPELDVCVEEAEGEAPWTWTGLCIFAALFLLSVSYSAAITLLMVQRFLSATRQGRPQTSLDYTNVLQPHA
Description: flow cytometry on mIgE.FcL-expressing Ramos cells, FITC anti-human IgG-Fc detection, geometric mean intensity. How it is done: as §1

Test [6] concerns the target T1, mIgE.FcS (CH2-cytoplasmic tail of the …). Nature of the test: flow cytometry on mIgE.FcS-expressing Ramos cells, FITC anti-human IgG-Fc detection, geometric mean intensity. How it is done: as §1
Test [7] addresses Fc region of human IgE (ε.Fc 2-4), Ser226 to Gly599, N265Q and N371Q (human) (UniProt P01854). Description: competition ELISA on coated ε.Fc 2-4; competitor HRP-conjugated c8D6 at fixed dilution, unconjugated antibody titrated.

Chain of Fc region of human IgE (ε.Fc 2-4), Ser226 to Gly599, N265Q and N371Q (human) (P01854 106-427, stated change not applied): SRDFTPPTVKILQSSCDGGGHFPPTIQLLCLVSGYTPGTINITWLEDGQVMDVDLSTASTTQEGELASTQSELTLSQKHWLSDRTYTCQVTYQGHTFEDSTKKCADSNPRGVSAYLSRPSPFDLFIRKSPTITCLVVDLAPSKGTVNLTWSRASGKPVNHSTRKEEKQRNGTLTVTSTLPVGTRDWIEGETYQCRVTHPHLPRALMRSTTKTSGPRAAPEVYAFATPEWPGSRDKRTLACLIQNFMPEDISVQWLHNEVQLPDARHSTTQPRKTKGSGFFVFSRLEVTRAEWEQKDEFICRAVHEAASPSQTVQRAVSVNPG

B1: chimeric 8D6 antibody (antibody, V domains shown)
VH: QVQLQQSGAELAKPGASVMLSCKASGYTFNGYWMHWVKQRPGQDLEWIGYINPTTGHTEYNQKFKDKATLTADESSNTAYIELSSLTSDDSAVYYCARQEYRHSWFAYWGQGTLVTVSA
VL: DIVLTQSPASLAVSLGQRATISCKASQSVDYDGDTYMNWYHQKPGQPPKLLIYAASNLDSGIPARFSGSGSGTDFTLNIHPVEEEDAATYYCQQTNEDPWTFGGGTKLEIK
notes: c8D6 is the chimeric form of 8D6 with human constant regions (detected with anti-human IgG-Fc); also called parent c8D6 antibody; HRP-conjugated c8D6
Usually EC50 stands for the concentration giving half of the maximal effect. Low readings indicate higher potency in that assay, high ones lower potency in that assay. By EC50 (read off the curve) is commonly meant the midpoint of the concentration-response curve. The IC50 is the concentration needed to halve the response being measured. A low value points to higher potency. For B1, the EC50 came to 0.116 nM in test [1] and 0.3 nM in test [4]. For the same molecule, the EC50 (read off the curve) is 0.02 µg/mL in test [2], around 0.03 µg/mL in test [5] and around 0.04 µg/mL in test [6]. The IC50 in test [3] was found to be 2.28 nM. In addition, the IC50 (read off the curve) in test [7] was found to be 0.4 µg/mL.
